# Laboratory results: patent US7871610B2, “Antibodies to Tie1 ectodomain” (Dyax Corp., priority 2003, dated 2011)
# Molecular target: T1, Mouse Tie 1-Fc (Mus musculus, UniProt Q06806)
# T1 sequence (Q06806 23-755 limits assumed): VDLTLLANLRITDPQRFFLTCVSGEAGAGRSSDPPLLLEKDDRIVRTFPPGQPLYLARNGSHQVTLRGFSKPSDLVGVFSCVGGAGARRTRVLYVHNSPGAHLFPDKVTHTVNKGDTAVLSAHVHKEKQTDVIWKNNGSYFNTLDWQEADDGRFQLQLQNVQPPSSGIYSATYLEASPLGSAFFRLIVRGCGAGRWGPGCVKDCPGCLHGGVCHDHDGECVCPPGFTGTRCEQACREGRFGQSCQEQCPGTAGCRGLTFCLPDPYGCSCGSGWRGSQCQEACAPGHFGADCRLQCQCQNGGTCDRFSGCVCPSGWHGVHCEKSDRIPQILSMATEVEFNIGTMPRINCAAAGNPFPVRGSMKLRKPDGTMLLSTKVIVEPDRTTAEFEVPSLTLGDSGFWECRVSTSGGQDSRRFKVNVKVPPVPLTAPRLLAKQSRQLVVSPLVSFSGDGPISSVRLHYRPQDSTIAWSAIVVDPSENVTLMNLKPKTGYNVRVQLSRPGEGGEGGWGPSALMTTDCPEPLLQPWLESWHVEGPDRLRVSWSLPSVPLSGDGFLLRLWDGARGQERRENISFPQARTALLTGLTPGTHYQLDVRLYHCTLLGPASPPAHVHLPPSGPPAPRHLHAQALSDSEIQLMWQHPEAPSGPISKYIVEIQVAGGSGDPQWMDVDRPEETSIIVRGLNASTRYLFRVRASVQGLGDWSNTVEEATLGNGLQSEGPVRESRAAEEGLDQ
# Experiment: BIAcore, E3 Fabs on mouse Tie1-Fc
# Type: binding
# Conditions: Fab, mouse Tie1-Fc
# Method: Mouse Tie 1-Fc antigen (0.5 mg/ml stock) was biotinylated using established procedures and after dilution 1/100 fold in HBS this was then used for capturing to a streptavidin chip. This was coated to a resonance value of 740RU. All analysis was performed in HBS buffer. The parental Fab E3 0.587 mg/ml (11740 nM) was diluted 1/587 in HBS+BSA to obtain a stock of 20 nM and the germlined Fab E3 0.025 mg/ml (500 nM) was diluted 1/25 in HBS+BSA to obtain a stock of 20 nM. Serial dilutions were made of each Fab preparation to obtain 10 nM, 5 nM, 2.5 nM, and 1.25 nM. For the association phase samples were injected at 30 μl/min for 4 minutes using kinject program. This was followed by a 10 minutes dissociation phase, any remaining sample was stripped from the Tie-1 Fc surface at a flow of 50 μl/min with a single injection of 50 mM NaOH+1 M NaCl for 18 seconds. All samples were run and analyzed in duplicate.
# Sensorgrams were analyzed using the simultaneous ka/kd fitting program with 1:1 model in the BIAEVALUATION™ software 3.1.
molecule,measurement,value
"E3: human anti-Tie1 antibody from Fab phage library; HC SEQ ID NO:114, LC SEQ ID NO:116 (antibody, V domains shown, Synthetically generated peptide) VH: EVQLLESGGGLVQPGGSLRLSCAASGFTFSMYGMVWVRQAPGKGLEWVSVISPSGGNTGYADSVKGRFTISRDNSKNTLYLQVNSLRAEDTAVYYCARAPRGYSYGYYYWGQGTLVTVSSASTKGPSVFPLAPSSKSTSGG VL: DIQMTQSPLSLSASVGDRVTITCRASQGIGHYLAWYQQKPGKVPKLLIYTASTLQSGVPSRFSGSGSGTDFTLTINSLQPEDVATYYCQQFNSYPHTFGQGTRLDIK",effect of germlining on binding activity,minimal effect on the binding activity
